Laboratory results from US20230192834A1.
Substitutions are numbered along the chain they refer to.

T1: TGFβ2 (R&D Systems)
T1 sequence (P61812 303-414, species assumed, looked up): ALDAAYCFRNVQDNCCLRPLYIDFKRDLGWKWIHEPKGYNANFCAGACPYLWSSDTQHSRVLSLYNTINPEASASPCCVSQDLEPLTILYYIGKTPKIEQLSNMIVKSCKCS

T2: TGFβ3 (R&D Systems)
T2 sequence (P10600 301-412, species assumed, looked up): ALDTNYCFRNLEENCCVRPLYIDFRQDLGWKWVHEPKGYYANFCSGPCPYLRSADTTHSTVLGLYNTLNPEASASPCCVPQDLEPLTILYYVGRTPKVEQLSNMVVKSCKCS

B1: Caninized anti-TGFβ1,2,3 antibody VH4.11 - VL3 (antibody, V domains shown)
VH: QVQLVQSGAEVKKPGSSVKVSCKASGYTFSSNVISWVRQAPGKGLQWVGGVIPIVDIANYAQRFKGRVTLTADTSTNTVYMELSNLRTEDTAVYYCARTLGLVLDAMDYWGQGTLVTVSS
VL: EIVMTQSPASLSLSQEEKVTITCRASQSLGSSYLAWYQQKPGQAPKLLIYGASSRAPGVPSRFSGSGSGTDFSFTISSLEPEDVAVYYCQQYADSPITFGQGTKLEIKR
B2: Caninized anti-TGFβ1,2,3 antibody VH5.10 - VL3 (antibody, V domains shown)
VH: EVQLVESGGDLVKPGGSLRLSCVASGFTFSSNVISWVRQAPGQGLEWMGGVIPIVDIANYAQRFKGRVTLTADTSTNTVYMELSNLRTEDTAVYYCARTLGLVLDAMDYWGQGTLVTVSS
VL: B1 VL
B3: Caninized anti-TGFβ1,2,3 antibody VH3.1 - VL3 (antibody, V domains shown)
VH: DVQLVESGGDLVKPGGSLRLTCVASGYTFSSNVMHWVRQAPGKGLQWVAYVIPIVDIAYYADSVKGRFTISIDNSKNTLYLQMNSLKTEDTATYYCARTLGLVLDAMDYWGQGTLVTVSS
VL: B1 VL
B4: Caninized anti-TGFβ1,2,3 antibody VH4.7 - VL2 (antibody, V domains shown)
VH: B1 VH with L70I, T74E, N77S, V79T, N85S, T88S, R98S
VL: ETVLTQSPGTLSLSPGERATLSCRASQSLGSSYLAWYQQKPGQAPRLLIYGASSRAPGVPARFSGSGSGTDFTLTISSLEPEDFAVYYCQQYADSPITFGQGTKLEIKR
B5: Caninized anti-TGFβ1,2,3 antibody VH4.11 - VL2 (antibody, V domains shown)
VH: B1 VH
VL: B4 VL
B6: Caninized anti-TGFβ1,2,3 antibody VH4.5 - VL1 (antibody, V domains shown)
VH: EVQLVESGGDLVKPAGSLRLSCVASGYTFSSNVMSWVRQAPGKGLQWVGYVIPIVDIANYADAVKGRFTISRDNAKNTLYLQMNSLRVEDTAVYYCTRTLGLVLDAMDYWGQGTLVTVSS
VL: B4 VL with V59I, A61D, S78R, K104R
B7: Caninized anti-TGFβ1,2,3 antibody VH3.6 - VL2 (antibody, V domains shown)
VH: EVQLVQSAAEVKKPGASVKVSCKTSGYIFISNVISWVRQAPGQGLEWMGGVIPIVDIANYAQRFKGRVTITADESTSTTYMELSSLRSEDTAVYYCASTLGLVLDAMDYWGQGTLVTVSS
VL: B4 VL
B8: Caninized anti-TGFβ1,2,3 antibody VH5.6 - VL2 (antibody, V domains shown)
VH: B2 VH with L70I, T74E, N77S, V79T, N85S, T88S, R98S
VL: B4 VL
B9: Caninized anti-TGFβ1,2,3 antibody VH3.1 - VL2 (ZTS-122) (antibody, V domains shown)
VH: B3 VH
VL: B4 VL
B10: Caninized anti-TGFβ1,2,3 antibody VH3.5 - VL2 (antibody, V domains shown)
VH: B7 VH with R38Q, Q43A, I70L, E74T, S77N, T79V, S85N, S88T
VL: B4 VL
B11: Caninized anti-TGFβ1,2,3 antibody VH4.5 - VL2 (ZTS-207) (antibody, V domains shown)
VH: B6 VH
VL: B4 VL
B12: Felinized anti-TGFβ1,2,3 antibody VH2.2 - VL3 (antibody, V domains shown)
VH: QVLLVQSGADVRKPGASVKIFCKASGYTFSSNVMHWVRQTPAQGFEWMGSVIPIVDIATYARRFQGRLVLTADTSTNTAYMELRSLKSADTAVYYCARTLGLVLDAMDYWGQGSLVTVSS
VL: EIQMTQSPSSLSASPGDRVTITCRASQSLGSSYLAWYQQKPGKVPKLLIYGASSRAPGVPSRFSGSGSGTDFTLTISSLEPEDAATYYCQQYADSPITFGQGTKLEIKR
B13: Felinized anti-TGFβ1,2,3 antibody VH2.8 - VL6 (antibody, V domains shown)
VH: QVQLVQSGAEVKKPGSSVKVSCKASGYTFSSNVISWVRQTPAQGFEWMGGVIPIVDIANYAQRFKGRLVLTADTSTNTAYMELRSLKSADTAVYYCASTLGLVLDAMDYWGQGTLVTVSS
VL: QSVLTQPPSVSGSLGQRVTISCRASQSLGSSYLAWYQQVPGRAPRLLIYGASSRAPGIPDRFSGSKSGTSGSLTITGLEADDEADYYCQQYADSPITFGGGTHLTVLG

Biological target: T1, TGFβ2 (R&D Systems)
Test: cell-based or functional assay

| Binder | TGFb2 IC50 (SMAD3 phosphorylation in CMVICs, AlphaLISA) [µg/mL] |
| --- | --- |
| B1 | 16.7 |
| B2 | 5.47 |
| B3 | 0.954 |
| B4 | 0.81 |
| B5 | 8.48 |
| B6 | 0.609 |
| B7 | 0.459 |
| B8 | 0.691 |
| B9 | 0.508 |
| B10 | 9.41 |
| B11 | 0.285 |
| B12 | 1.2 |
| B13 | 0.547 |

Biological target: TGFβ1 (R&D Systems)
Test: cell-based or functional assay

Sequence of TGFβ1 (R&D Systems) (P01137 279-390): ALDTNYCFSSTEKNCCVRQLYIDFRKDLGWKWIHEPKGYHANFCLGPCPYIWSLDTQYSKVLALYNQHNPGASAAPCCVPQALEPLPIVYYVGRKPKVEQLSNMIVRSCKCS

| Binder | TGFb1 IC50 (SMAD3 phosphorylation in CMVICs, AlphaLISA) [µg/mL] |
| --- | --- |
| B1 | 1.01 |
| B2 | 0.232 |
| B3 | 0.134 |
| B4 | 0.071 |
| B5 | 0.164 |
| B6 | 0.122 |
| B7 | 0.057 |
| B8 | 0.019 |
| B9 | 0.061 |
| B10 | 0.083 |
| B11 | 0.06 |
| B12 | 0.24 |
| B13 | 0.969 |

Biological target: T2, TGFβ3 (R&D Systems)
Test: cell-based or functional assay

| Binder | TGFb3 IC50 (SMAD3 phosphorylation in CMVICs, AlphaLISA) [µg/mL] |
| --- | --- |
| B1 | 0.575 |
| B2 | 0.113 |
| B3 | 0.034 |
| B5 | 0.375 |
| B6 | 0.062 |
| B7 | 0.203 |
| B8 | 0.056 |
| B9 | 0.092 |
| B10 | 0.981 |
| B11 | 0.02 |

Biological target: T1, TGFβ2 (R&D Systems)
Test: SPR (Biacore T200), TGFβ amine-coupled to chip, 1:1 fit

| Binder | Kd [nM] |
| --- | --- |
| B1 | 5.15 |
| B2 | 3.57 |
| B3 | 3.91 |
| B4 | 1.99 |
| B5 | 3.77 |
| B6 | 1.56 |
| B7 | 3.42 |
| B8 | 2.6 |
| B9 | 3.37 |
| B10 | 3.56 |
| B11 | 1.4 |
| B12 | 2.39 |
| B13 | 1.72 |

Biological target: TGFβ1 (R&D Systems)
Test: as above

| Binder | Kd [nM] |
| --- | --- |
| B1 | 7.14 |
| B2 | 5.23 |
| B3 | 7.52 |
| B4 | 2.61 |
| B5 | 4.98 |
| B6 | 2.57 |
| B7 | 4.39 |
| B8 | 3.68 |
| B9 | 5.6 |
| B10 | 4.37 |
| B11 | 2.3 |
| B12 | 3.31 |
| B13 | 2.95 |

Biological target: T2, TGFβ3 (R&D Systems)
Test: as above

| Binder | Kd [nM] |
| --- | --- |
| B1 | 2.5 |
| B2 | 1.5 |
| B3 | 0.981 |
| B4 | 1.2 |
| B5 | 2.1 |
| B6 | 0.475 |
| B7 | 1.49 |
| B8 | 1.67 |
| B9 | 1.12 |
| B10 | 1.91 |
| B11 | 0.43 |
| B12 | 3.49 |
| B13 | 2.41 |
